Test results reported in patent US20150274836A1 (US Dept. of Health and Human Services, published 2015).

Columns and labels:
[1] = target: T1, SD1-human Fc fusion protein (human, UniProt P01857 104-330 = IgG part); experiment: ELISA on coated human mesothelin protein (FIG. 3C)
T1 construct: domain: CH2 and CH3 in the constant region of human IgG heavy chain gamma 1; also called SD1-hFc

[2] = target: T1, SD1-human Fc fusion protein; experiment: ELISA on coated human mesothelin protein, equilibrium constant by Prism / Scatchard
[3] = target: T1, SD1-human Fc fusion protein; experiment: direct ELISA, coated antigen

T1 sequence (P01857 other isoform, or with tags, fused parts or gaps limits assumed): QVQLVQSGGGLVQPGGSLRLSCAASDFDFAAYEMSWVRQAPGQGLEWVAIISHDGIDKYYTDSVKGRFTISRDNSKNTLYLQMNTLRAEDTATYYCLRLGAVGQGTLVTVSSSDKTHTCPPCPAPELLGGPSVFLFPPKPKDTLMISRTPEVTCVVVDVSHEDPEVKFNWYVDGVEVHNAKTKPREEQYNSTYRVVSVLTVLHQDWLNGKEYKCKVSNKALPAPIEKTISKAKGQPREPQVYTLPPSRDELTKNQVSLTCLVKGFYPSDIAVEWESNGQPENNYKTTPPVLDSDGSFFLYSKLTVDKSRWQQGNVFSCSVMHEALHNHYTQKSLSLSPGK

B1: full-length human mesothelin protein (other)
chain: EVEKTACPSGKKAPEIDESLIFYKKWELEACVDAALLATQMDRVNAIPFTYEQLDVLKHKLDELYPQGYPESVIQHLGYLFLKMSPEDIRKWNVTSLETLKALLEVNKGHEMSPQVATLIDRFVKGRGQLDKDTLDTLTAFYPGYLCSLSPEELSSVPPSSIWAVRPQDLDTCDPRQLDVLYPKARLAFQNMNGSEYFVKIQSFLGGAPTEDLKALSQQNVSMDLATFMKLRTDAVLPLTVAEVQKLLGPHVEGLKAEERHRPVRDWILRQRQDDLDTLGLGLQGGIPNGYLVLDLSMQEALS
notes: also called MSLN; full-length mesothelin
Kd [1]: 0.0136 µM | Kd [2]: 0.0136 µM

B2: full-length mouse mesothelin protein (other)
chain: DAEQKACPPGKEPYKVDEDLIFYQNWELEACVDGTMLARQMDLVNEIPFTYEQLSIFKHKLDKTYPQGYPESLIQQLGHFFRYVSPEDIHQWNVTSPDTVKTLLKVSKGQKMNAQAIALVACYLRGGGQLDEDMVKALGDIPLSYLCDFSPQDLHSVPSSVMWLVGPQDLDKCSQRHLGLLYQKACSAFQNVSGLEYFEKIKTFLGGASVKDLRALSQHNVSMDIATFKRLQVDSLVGLSVAEVQKLLGPNIVDLKTEEDKSPVRDWLFRQHQKDLDRLGLGLQGGIPNGYLVLDFNVREAFS
notes: also called mMSLN; murine mesothelin
binding result [3]: no binding
